Data on 31 molecules can be found in patent US20150299296A1 (Chugai, published 2015).

The target of assay [1] is T1, human FcγRIIb extracellular domain with C-terminal His tag (human, UniProt P31994 43-217).
T1 construct: extracellular domain; For crystals it was expressed with kifunensine and trimmed with Endo F1; also called FcgRIIb; FcγRIIb extracellular region
T1 sequence (looked up): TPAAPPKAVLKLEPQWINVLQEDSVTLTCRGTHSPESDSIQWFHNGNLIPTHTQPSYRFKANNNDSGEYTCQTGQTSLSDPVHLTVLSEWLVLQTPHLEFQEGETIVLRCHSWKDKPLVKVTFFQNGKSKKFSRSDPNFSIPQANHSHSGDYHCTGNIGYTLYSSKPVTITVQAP
The assay can be described thus: SPR (Biacore): amount of FcγRIIb bound per captured antibody, relative to the pre-altered antibody GpH7-B3/GpL16-k0 = 100 (Reference Examples 2, 3 and 6). On the technique in general: Surface plasmon resonance follows binding to a sensor surface in real time, without labels.

The target in assay [2] is T1, human FcγRIIb extracellular domain with …. The assay can be described thus: SPR.
Assay [3] deals with T2, human FcγRIIa type H extracellular domain with C-terminal His tag (human, UniProt P12318 34-217).
T2 construct: extracellular domain; also called FcgRIIaH; FcγRIIa H
T2 sequence (looked up): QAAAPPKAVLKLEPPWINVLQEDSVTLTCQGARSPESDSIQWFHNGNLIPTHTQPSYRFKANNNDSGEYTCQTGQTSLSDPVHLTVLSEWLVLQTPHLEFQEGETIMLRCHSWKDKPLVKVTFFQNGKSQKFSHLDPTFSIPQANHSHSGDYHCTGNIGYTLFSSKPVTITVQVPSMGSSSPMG
The experiment in a line: SPR; IL6R-BF648/IL6R-L=100. Here is the method:
(§1) IL6R-L was utilized as the common antibody L chain for all of the antibodies, the antibodies were expressed and purified according to the method of Reference Example 1, and binding to each of the FcγRs (FcγRIa, FcγRIIa type H, FcγRIIa type R, FcγRIIb, and FcγRIIIa type V) was comprehensively evaluated by the method of Reference Example 2.
(§2) Relative binding activities were calculated for the results of analyzing interactions with the respective FcγRs according to the following method.

In assay [4] the target is T1, human FcγRIIb extracellular domain with …. The experiment in a line: SPR; IL6R-BF648/IL6R-L=100. How it is done:
as §1, §2

Assay [5] concerns the target T3, human FcγRIa extracellular domain with C-terminal His tag (human, UniProt P12314 16-292).
T3 construct: Whole entry named; also called FcgRIa; FcgIa
The experiment in a line: SPR; IL6R-BF648/IL6R-L=100. How it is done: as §1, §2

Assay [6] deals with T4, human FcγRIIIa type V extracellular domain with C-terminal His tag (human, UniProt P08637 17-208).
T4 construct: extracellular domain; also called FcgRIIIaV; FcγRIIIaV
The experiment in a line: SPR; IL6R-BF648/IL6R-L=100. Here is the method:
as §1, §2

Positions count from the first letter of the chain named. Names may count otherwise.

T3 sequence (P12314 16-292): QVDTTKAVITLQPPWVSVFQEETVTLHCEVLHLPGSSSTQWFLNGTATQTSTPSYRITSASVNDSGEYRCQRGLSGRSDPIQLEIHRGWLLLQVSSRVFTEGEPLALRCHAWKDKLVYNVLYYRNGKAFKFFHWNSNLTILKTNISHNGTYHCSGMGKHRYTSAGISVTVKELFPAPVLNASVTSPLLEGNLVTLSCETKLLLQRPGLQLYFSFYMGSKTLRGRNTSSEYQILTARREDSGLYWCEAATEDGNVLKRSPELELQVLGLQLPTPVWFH
T4 sequence (P08637 17-208 F176V): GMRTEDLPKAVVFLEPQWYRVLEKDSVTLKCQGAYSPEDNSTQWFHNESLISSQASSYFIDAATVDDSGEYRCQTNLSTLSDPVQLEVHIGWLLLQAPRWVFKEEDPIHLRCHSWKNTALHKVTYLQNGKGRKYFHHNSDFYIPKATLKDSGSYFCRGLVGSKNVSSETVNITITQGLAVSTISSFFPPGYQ

B1: G237W (antibody, human IgG1, kappa)
heavy chain: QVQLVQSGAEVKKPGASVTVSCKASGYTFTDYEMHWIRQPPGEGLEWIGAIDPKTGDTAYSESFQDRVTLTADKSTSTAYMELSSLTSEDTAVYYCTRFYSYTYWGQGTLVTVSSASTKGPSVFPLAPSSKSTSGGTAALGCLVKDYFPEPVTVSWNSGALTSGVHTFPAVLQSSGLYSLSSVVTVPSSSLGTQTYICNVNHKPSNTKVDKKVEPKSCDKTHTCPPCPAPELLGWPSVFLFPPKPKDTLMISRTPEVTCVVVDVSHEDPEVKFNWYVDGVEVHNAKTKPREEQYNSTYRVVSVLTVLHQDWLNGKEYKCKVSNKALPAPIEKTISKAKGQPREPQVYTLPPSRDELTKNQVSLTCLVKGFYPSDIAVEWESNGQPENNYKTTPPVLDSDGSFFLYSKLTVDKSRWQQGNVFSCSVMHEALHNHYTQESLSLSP
light chain: DIVMTQSPLSLPVTPGEPASISCQASESLVHSNRNTYLHWYLQKPGQSPQLLIYKVSNRFSGVPDRFSGSGSGTDFTLKISRVEAEDVGVYYCSQNTHVPPTFGQGTKVEIERTVAAPSVFIFPPSDEQLKSGTASVVCLLNNFYPREAKVQWKVDNALQSGNSQESVTEQDSKDSTYSLSSTLTLSKADYEKHKVYACEVTHQGLSSPVTKSFNRGEC
notes: also called GpH7-B3 with G237W / GpL16-k0 (no P238D)
As for B1, the binding result in assay [1] was “binds”.

B2: G237Y (antibody, human IgG1, kappa)
heavy chain: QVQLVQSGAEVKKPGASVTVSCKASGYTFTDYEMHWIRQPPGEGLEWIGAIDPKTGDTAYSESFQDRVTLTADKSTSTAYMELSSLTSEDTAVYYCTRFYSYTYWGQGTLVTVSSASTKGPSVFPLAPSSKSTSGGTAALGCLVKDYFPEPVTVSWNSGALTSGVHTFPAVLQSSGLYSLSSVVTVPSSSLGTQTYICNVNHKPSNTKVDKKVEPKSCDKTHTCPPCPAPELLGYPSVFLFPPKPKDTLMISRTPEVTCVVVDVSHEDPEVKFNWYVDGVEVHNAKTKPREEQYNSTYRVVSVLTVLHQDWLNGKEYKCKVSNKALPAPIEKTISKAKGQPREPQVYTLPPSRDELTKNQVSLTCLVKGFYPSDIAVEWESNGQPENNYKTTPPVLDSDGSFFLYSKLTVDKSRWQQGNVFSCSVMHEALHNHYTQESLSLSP
light chain: B1 light chain
notes: also called GpH7-B3 with G237Y / GpL16-k0 (no P238D)
Regarding B2, the binding result in assay [1] is on record as “binds”.

B3: G237M (antibody, human IgG1, kappa)
heavy chain: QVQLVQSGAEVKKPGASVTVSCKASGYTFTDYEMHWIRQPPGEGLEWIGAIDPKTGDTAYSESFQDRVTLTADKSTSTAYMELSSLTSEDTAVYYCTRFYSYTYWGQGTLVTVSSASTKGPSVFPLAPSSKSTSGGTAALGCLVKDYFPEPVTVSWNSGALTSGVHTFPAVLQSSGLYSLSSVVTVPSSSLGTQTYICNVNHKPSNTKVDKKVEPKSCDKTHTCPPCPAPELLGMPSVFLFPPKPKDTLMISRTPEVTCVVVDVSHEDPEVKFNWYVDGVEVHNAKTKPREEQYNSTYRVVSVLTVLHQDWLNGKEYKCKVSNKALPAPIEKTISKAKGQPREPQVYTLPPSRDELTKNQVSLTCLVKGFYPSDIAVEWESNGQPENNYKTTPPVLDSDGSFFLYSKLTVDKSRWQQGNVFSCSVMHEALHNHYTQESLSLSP
light chain: B1 light chain
notes: also called GpH7-B3 with G237M / GpL16-k0 (no P238D)
As to B3, in assay [1], the binding result is given as “binds”.

B4: G237L (antibody, human IgG1, kappa)
heavy chain: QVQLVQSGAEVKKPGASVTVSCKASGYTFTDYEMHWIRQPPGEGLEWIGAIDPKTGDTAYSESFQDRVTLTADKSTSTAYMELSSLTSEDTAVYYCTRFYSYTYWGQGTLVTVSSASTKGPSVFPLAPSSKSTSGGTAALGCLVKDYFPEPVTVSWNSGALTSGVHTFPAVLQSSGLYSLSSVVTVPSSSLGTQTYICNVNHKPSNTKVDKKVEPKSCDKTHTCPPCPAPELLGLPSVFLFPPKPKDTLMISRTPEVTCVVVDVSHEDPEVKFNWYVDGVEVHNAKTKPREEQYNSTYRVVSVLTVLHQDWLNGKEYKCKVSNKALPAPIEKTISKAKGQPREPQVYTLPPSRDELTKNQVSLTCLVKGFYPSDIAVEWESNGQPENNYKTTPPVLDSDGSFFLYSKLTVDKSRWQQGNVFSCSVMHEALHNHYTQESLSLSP
light chain: B1 light chain
notes: also called GpH7-B3 with G237L / GpL16-k0 (no P238D)
As to B4, the binding result in assay [1] is “binds”.

B5: G237D (antibody, human IgG1, kappa)
heavy chain: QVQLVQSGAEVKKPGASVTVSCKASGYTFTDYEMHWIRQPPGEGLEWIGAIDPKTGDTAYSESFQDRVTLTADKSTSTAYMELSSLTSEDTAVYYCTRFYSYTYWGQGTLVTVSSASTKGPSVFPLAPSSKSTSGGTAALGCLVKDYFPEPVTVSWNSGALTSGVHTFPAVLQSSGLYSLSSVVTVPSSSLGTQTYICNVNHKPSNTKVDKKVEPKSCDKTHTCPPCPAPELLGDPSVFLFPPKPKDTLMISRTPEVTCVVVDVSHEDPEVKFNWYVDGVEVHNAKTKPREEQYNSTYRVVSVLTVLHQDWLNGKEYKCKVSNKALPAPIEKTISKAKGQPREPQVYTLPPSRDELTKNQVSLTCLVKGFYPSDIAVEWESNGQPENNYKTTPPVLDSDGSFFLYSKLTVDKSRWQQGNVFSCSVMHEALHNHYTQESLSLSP
light chain: B1 light chain
notes: also called GpH7-B3 with G237D / GpL16-k0 (no P238D)
For B5, in assay [1], the binding result was “binds”.

B6: S239D (antibody, human IgG1, kappa)
heavy chain: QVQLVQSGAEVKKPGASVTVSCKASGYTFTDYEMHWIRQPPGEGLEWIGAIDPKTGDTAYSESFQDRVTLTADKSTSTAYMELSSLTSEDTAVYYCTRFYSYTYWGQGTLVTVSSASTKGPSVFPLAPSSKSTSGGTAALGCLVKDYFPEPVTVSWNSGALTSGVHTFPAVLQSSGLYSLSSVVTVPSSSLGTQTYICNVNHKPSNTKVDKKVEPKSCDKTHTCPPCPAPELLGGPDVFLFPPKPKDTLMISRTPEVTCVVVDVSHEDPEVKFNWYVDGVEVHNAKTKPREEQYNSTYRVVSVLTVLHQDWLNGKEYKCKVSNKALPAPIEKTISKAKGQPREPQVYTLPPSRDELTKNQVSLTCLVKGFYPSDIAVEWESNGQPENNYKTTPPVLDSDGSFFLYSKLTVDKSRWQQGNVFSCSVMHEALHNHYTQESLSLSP
light chain: B1 light chain
notes: also called GpH7-B3 with S239D / GpL16-k0 (no P238D)
Turning to B6, the binding result in assay [1] was “binds”.

B7: L234Y (antibody, human IgG1, kappa)
heavy chain: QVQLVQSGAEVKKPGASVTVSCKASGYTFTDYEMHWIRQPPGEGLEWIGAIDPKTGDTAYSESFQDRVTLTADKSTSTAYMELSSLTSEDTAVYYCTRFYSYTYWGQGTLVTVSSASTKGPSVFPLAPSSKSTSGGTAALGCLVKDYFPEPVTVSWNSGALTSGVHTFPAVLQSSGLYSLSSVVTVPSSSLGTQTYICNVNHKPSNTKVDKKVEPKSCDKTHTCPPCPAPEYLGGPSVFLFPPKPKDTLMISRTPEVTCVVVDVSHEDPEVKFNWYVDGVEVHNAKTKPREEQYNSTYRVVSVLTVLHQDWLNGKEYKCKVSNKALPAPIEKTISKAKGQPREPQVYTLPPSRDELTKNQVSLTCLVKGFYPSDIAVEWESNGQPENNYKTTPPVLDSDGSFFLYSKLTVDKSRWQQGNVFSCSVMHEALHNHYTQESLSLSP
light chain: B1 light chain
notes: also called GpH7-B3 with L234Y / GpL16-k0 (no P238D)
Consider B7, for which the binding result in assay [1] is recorded as “binds”.

B8: G237A (antibody, human IgG1, kappa)
heavy chain: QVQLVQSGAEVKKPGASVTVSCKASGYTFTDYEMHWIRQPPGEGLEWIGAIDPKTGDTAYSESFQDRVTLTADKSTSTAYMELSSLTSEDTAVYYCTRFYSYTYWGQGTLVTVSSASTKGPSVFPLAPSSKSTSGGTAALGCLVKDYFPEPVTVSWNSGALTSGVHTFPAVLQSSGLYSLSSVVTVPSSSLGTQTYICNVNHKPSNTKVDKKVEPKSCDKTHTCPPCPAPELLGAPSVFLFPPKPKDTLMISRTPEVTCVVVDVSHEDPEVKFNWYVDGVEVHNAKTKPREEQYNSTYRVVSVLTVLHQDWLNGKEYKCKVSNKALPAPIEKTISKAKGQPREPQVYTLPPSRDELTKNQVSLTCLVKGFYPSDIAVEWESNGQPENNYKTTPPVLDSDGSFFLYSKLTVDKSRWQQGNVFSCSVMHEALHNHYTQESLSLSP
light chain: B1 light chain
notes: also called GpH7-B3 with G237A / GpL16-k0 (no P238D)
In the case of B8, the binding result in assay [1] was “binds”.

B9: L234W (antibody, human IgG1, kappa)
heavy chain: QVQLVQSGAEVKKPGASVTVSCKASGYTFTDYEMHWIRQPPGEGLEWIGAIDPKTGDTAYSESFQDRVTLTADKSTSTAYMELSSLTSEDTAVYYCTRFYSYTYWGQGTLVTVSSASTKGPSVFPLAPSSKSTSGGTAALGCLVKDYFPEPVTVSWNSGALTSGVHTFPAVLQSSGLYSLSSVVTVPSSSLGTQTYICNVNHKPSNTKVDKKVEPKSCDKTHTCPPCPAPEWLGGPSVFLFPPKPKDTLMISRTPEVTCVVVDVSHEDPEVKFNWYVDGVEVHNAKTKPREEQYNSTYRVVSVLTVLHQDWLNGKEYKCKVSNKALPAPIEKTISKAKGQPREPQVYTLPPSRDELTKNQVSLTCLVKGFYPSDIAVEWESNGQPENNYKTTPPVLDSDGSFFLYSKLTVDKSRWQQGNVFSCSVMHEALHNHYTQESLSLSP
light chain: B1 light chain
notes: also called GpH7-B3 with L234W / GpL16-k0 (no P238D)
On to B9, for which the binding result in assay [1] is recorded as “binds”.

B10: G237E (antibody, human IgG1, kappa)
heavy chain: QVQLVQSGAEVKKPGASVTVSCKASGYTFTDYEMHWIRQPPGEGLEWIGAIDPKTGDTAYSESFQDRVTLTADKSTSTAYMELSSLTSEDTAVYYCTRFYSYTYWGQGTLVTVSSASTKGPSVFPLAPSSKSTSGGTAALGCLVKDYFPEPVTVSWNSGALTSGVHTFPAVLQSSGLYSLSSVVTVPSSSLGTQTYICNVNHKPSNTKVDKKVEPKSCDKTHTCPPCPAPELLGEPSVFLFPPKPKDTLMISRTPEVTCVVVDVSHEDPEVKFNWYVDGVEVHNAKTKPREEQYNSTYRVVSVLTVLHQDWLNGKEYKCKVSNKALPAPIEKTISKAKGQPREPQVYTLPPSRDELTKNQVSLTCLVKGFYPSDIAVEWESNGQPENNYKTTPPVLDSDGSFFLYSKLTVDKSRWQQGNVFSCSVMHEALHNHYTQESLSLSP
light chain: B1 light chain
notes: also called GpH7-B3 with G237E / GpL16-k0 (no P238D)
For the molecule B10, in assay [1], the binding result was “binds”.

B11: G237F (antibody, human IgG1, kappa)
heavy chain: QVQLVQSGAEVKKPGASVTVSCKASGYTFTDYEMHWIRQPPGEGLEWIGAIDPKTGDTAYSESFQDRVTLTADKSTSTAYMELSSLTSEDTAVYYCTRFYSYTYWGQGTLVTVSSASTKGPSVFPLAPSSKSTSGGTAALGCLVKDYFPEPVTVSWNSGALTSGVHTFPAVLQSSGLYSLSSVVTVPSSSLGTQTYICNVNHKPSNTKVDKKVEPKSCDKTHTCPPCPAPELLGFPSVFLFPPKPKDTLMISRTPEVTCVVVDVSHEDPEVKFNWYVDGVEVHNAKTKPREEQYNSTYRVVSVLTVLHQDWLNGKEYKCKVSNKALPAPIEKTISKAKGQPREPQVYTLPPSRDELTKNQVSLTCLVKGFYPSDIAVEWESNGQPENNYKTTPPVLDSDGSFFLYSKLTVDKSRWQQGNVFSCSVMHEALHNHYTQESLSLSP
light chain: B1 light chain
notes: also called GpH7-B3 with G237F / GpL16-k0 (no P238D)
As for B11, the binding result in assay [1] is reported as “binds”.

B12: IL6R-BP423/IL6R-L (antibody, human IgG1, kappa)
heavy: QVQLQESGPGLVKPSETLSLTCAVSGHSISHDHAWSWVRQPPGEGLEWIGFISYSGITNYNPSLQGRVTISRDNSKNTLYLQMNSLRAEDTAVYYCARSLARTTAMDYWGEGTLVTVSSASTKGPSVFPLAPSSKSTSGGTAALGCLVKDYFPEPVTVSWNSGALTSGVHTFPAVLQSSGLYSLSSVVTVPSSSLGTQTYICNVNHKPSNTKVDKKVEPKSCDKTHTCPPCPAPDLLGDDSVFLFPPKPKDTLMISRTPEVTCVVVDVAEEDGEVKFNWYVDGVEVHNAKTKPREEQYNSTYRVVSVLTVLHQDWLNGKEYKCKVSNKALPRPIEKTISKAKGQPREPQVYTLPPSRDELTKNQVSLTCLVKGFYPSDIAVEWESNGQPENNYKTTPPVLDSDGSFFLYSKLTVDKSRWQQGNVFSCSVMHEALHNHYTQESLSLSP
light: not shown
In the case of B12, the binding result in assay [2] is listed as “binds”.

B13: IL6R-BP199/IL6R-L (antibody, human IgG1, kappa, name in EU numbering)
heavy: B12 heavy with D239G, A269S, E270H, G273P, K328A
light: not shown
Turning to B13, the relative binding activity in assay [3] amounted to 116; in assay [4] it was 144; in assay [5] it was 112; in assay [6], 103.

B14: IL6R-BP209/IL6R-L (antibody, human IgG1, kappa, name in EU numbering)
heavy: B12 heavy with D235E, A269S, E270D, K328A
light: not shown
In the case of B14, the relative binding activity in assay [3] is 267; in assay [4], 186; in assay [5], 68; in assay [6], 153.

B15: IL6R-BP207/IL6R-L (antibody, human IgG1, kappa, name in EU numbering)
heavy: B12 heavy with D239G, A269S, E270H, G273P
light: not shown
Regarding B15, the relative binding activity in assay [3] was determined as 103; in assay [4] it was 124; in assay [5], 74; in assay [6], 97.

B16: IL6R-BP511/IL6R-L (antibody, human IgG1, kappa)
heavy: B12 heavy with D235E, V266I, E274P, Y298D
light: not shown
Take B16: the binding result in assay [2] was “binds”.

B17: IL6R-BP206/IL6R-L (antibody, human IgG1, kappa, name in EU numbering)
heavy: B12 heavy with D239G, A269S, E270H
light: not shown
As to B17, the relative binding activity in assay [3] worked out at 123; in assay [4] it was 168; in assay [5], 101; in assay [6], 92.

B18: IL6R-BP498/IL6R-L (antibody, human IgG1, kappa)
heavy: B12 heavy with V266I, P398L
light: not shown
As for B18, in assay [2], the binding result was “binds”.

B19: IL6R-BP203/IL6R-L (antibody, human IgG1, kappa, name in EU numbering)
heavy: B12 heavy with D235E, A269S, E270H
light: not shown
Take B19: the relative binding activity in assay [3] was 255; in assay [4], 185; in assay [5], 35; in assay [6], 88.

B20: IL6R-BP488/IL6R-L (antibody, human IgG1, kappa)
heavy: B12 heavy with V266I, Y298D
light: not shown
In the case of B20, in assay [2], the binding result is “binds”.

B21: IL6R-BP510/IL6R-L (antibody, human IgG1, kappa)
heavy: B12 heavy with D235E, V266I, E274P
light: not shown
notes: also called IL6R-BP510/L6R-L
Turning to B21, the binding result in assay [2] is on record as “binds”.

B22: IL6R-BP437/IL6R-L (antibody, human IgG1, kappa)
heavy: B12 heavy with D235E, Y298D, I334T
light: not shown
Take B22: in assay [2], the binding result was “binds”.

B23: IL6R-BP487/IL6R-L (antibody, human IgG1, kappa)
heavy: B12 heavy with V266I, P398M
light: not shown
As to B23, in assay [2], the binding result is reported as “binds”.

B24: IL6R-BP213/IL6R-L (antibody, human IgG1, kappa, name in EU numbering)
heavy: B12 heavy with D239G, A269S, E270D
light: not shown
On to B24, for which the relative binding activity is 123 in assay [3], 169 in assay [4], 118 in assay [5] and 100 in assay [6].

B25: IL6R-BP445/IL6R-L (antibody, human IgG1, kappa)
heavy: B12 heavy with V266I
light: not shown
Turning to B25, the binding result in assay [2] is “binds”.

B26: IL6R-BP499/IL6R-L (antibody, human IgG1, kappa)
heavy: B12 heavy with V266I, Y298D, P398L
light: not shown
On to B26, for which the binding result in assay [2] was “binds”.

B27: IL6R-BP491/IL6R-L (antibody, human IgG1, kappa)
heavy: B12 heavy with D235E, V266I, Y298D
light: not shown
B27: in assay [2], the binding result is recorded as “binds”.

B28: IL6R-BP429/IL6R-L (antibody, human IgG1, kappa)
heavy: B12 heavy with V266I, A269G
light: not shown
B28: the binding result in assay [2] is on record as “binds”.

B29: IL6R-BP503/IL6R-L (antibody, human IgG1, kappa)
heavy: B12 heavy with V266I, Y298D, A329G, P398M
light: not shown
For the molecule B29, the binding result in assay [2] is listed as “binds”.

B30: IL6R-BP490/IL6R-L (antibody, human IgG1, kappa)
heavy: B12 heavy with D235E, V266I
light: not shown
For the molecule B30, the binding result in assay [2] was “binds”.

B31: IL6R-BP494/IL6R-L (antibody, human IgG1, kappa)
heavy: B12 heavy with D235E, Y298D
light: not shown
On to B31, for which the binding result in assay [2] is recorded as “binds”.
